# Publication PMC6333238, “The biosynthetic implications of late-stage condensation domain selectivity during glycopeptide antibiotic biosynthesis” (Chemical Science, 2018)
# System: T1, N[C@H](C(=O)O)c1cc(O)cc(O)c1
# T1 construct: full-length final NRPS module C-A-PCP-X-TE, MBP fusion (pET-MBP-1c), Ni-NTA and SEC, E. coli, co-expressed with Tcp17; holo form (PCP loaded with phosphopantetheine by Sfp R4-4); with MbtH-like protein Tcp17
# Test: coupled PPi-release A-domain assay (PPi-PFK/aldolase/TPI/GDH, NADH)
# Type: biochemical, Actinoplanes teichomyceticus
# Settings: holo form, 0.5 mM ATP, 1 mM MgCl2, pH 7.4, 0.1 mM EDTA, enzyme 1 μM
# Chain of Tcp12 (Actinoplanes teichomyceticus) (chain, as listed by the source): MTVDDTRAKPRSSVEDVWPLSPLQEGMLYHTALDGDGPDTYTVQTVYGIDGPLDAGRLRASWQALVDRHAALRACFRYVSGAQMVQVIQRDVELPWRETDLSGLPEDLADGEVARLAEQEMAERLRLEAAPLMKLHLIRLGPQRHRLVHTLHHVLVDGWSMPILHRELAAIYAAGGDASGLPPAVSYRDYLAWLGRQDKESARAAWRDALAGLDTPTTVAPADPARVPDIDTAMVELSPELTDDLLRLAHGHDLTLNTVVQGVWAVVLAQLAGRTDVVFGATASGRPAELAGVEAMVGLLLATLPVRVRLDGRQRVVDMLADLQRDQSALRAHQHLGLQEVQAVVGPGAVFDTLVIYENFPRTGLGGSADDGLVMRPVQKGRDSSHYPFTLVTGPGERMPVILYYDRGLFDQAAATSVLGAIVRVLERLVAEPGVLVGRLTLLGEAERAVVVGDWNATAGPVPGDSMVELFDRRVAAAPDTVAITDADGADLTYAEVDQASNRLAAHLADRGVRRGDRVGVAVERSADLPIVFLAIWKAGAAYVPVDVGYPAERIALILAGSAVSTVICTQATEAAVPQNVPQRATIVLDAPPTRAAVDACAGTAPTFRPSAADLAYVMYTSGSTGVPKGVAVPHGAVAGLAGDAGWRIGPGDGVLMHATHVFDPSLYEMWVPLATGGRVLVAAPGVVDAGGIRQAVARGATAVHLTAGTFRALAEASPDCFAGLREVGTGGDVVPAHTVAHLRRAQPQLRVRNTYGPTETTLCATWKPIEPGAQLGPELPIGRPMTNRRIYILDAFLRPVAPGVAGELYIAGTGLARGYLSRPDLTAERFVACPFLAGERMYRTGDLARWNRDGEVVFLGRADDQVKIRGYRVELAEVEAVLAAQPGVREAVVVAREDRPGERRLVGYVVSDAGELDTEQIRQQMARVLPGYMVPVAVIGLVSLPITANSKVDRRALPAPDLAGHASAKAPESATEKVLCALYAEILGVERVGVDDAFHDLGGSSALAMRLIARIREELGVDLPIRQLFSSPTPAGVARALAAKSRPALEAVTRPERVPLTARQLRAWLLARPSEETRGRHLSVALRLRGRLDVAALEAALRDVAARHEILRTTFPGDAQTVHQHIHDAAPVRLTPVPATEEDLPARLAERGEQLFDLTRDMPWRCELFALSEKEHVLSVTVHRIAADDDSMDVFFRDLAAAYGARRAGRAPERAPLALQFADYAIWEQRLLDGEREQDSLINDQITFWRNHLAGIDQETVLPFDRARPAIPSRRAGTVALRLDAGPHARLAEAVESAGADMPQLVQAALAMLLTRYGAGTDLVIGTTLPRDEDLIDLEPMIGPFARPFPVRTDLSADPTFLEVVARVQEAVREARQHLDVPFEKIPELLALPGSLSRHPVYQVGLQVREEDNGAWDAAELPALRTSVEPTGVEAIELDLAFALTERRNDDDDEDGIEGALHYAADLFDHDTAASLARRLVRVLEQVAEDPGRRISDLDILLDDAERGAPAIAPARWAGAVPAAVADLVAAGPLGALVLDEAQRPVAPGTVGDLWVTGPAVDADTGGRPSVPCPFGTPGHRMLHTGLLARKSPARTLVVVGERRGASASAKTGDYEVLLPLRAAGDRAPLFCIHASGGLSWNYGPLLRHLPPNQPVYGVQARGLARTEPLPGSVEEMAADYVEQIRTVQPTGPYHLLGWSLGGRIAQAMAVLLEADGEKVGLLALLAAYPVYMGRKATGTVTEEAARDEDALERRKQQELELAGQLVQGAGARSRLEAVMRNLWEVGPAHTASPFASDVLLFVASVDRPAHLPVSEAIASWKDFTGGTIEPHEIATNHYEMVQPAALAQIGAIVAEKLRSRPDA
substance,measurement,value
Tcp12 (Actinoplanes teichomyceticus),Km,4 ± 0.1 µM
same,kcat,0.01867 ± 0.000167 s⁻¹
